The values that follow come from patent US20230272024A1, “FIBROBLAST GROWTH FACTOR 7 PEPTIDE” (University of Florida Research Foundation, Incorporated, priority 2020, published 2023).

“Also recorded” adds a separate entry of the source.

Holding throughout (format): in vivo, mice
The target of assay [1] is T1, FGFR2IIIb (Mus musculus, UniProt P21803).
T1 construct: from tissue; host or cells: bladder urothelium of FVB/N mice (in vivo)
Put plainly: pFRS2α immunostaining of bladder urothelium after subcutaneous ligand. The settings on record: for onset of pFRS2α staining (initial staining observed) after administration: mouse, in vivo. The method, then: (§1) Uninjured mice were treated with 0.2 mL of 10% DMSO, 40 mg/kg FGF7-p, or […] full length FGF7 (n=2 mice per group, mice were about 25 g in weight) administered by subcutaneous injection. At the indicated times (Tables 1 and 2, FIGS. 1 and 2) bladders were harvested and immunostained for pFRS2α and pAKT, markers of urothelial protection. Immunostaining of bladder tissues from each group was repeated. Tables 1, 3, and 4 show the staining pattern for pFRS2α and pAKT over time in mice treated with full length FGF7.
(§2) After FGF7 binds to FGFR2IIIb, pFRSα appears first followed by pAKT. Activation of pAKT correlates with the anti-apoptotic/cytoprotective effects of FGF7 in the bladder urothelium.
(§3) Mice treated with DMSO control, full length FGF7, or FGF7-p were analyzed for activation of FGFR2IIIb and pAKT. Phosphorylated FRS2α and AKT levels were examined by immunostaining. After administration of full length FGF7, initial pFRS2α staining was observed as early as 15 hours later and pAKT staining was observed by 30 hours and peaked at 48 hours (see Tables 1-4 above). 48 hours after administration of 20 mg/kg or 40 mg/kg FGF7-p samples, strong FRS2α staining was observed.

The target of assay [2] is T1, FGFR2IIIb. The experiment in a line: pAKT immunostaining of bladder urothelium after subcutaneous ligand. The settings on record: for pAKT staining: uninjured mice, full length FGF7 5 mg/kg, FGF7-p 40 mg/kg. The protocol: as §1, §2, §3
To assess whether pATK expression was also increase in FGF7-p treated mice, bladders were analyzed for pATK staining at 72 hours. To confirm pAKT staining was robust in bladder of FGF7-p of treated mice at 72 hours, additional staining for DMSO and FGF7-p (40 mg/kg) treated animals at 72 hours and staining on old samples from full length FGF7-treated samples (5 mg/kg) at 30 hours, 48 hours and 96 hours (n=2 mice per group) was performed. […] Further, robust pAKT signal was seen throughout the urothelium.

The test system of assay [3] is bladder urothelium. Put plainly: cyclophosphamide-induced urothelial injury and apoptosis (H&E, TUNEL). The method, then:
FVB/N mice were administered subcutaneous doses 5 mg/kg, 20 mg/kg, 40 mg/kg of FGF7-p, 5 mg/kg of full length FGF7, or 10% DMSO alone (vehicle). After 24 hours, 150 mg/kg of cyclophosphamide was administered to the mice. Mice were the sacrificed and bladder tissues examined for signs of urothelial injury at various times.
(§4) Mice were administered two doses of 20 mg/kg of subcutaneous (SQ) FGF7-p (or 10% DMSO vehicle) at 72 hours and 48 hours prior to intraperitoneal (IP) injection of 150 mg/kg cyclophosphamide (n=3 female mice per group). Mice were sacrificed and bladders were harvested 24 hours after cyclophosphamide injection. The bladders were fixed in 4% paraformaldehyde in phosphate buffered saline and embedded in paraffin. The paraffin embedded bladders were then serially sectioned with a microtome. Hematoxylin and eosin staining was performed on the sections.

In a further assay the test system is pAKT. Put plainly: pAKT immunostaining of urothelium after cyclophosphamide. The settings on record: two SC doses of 20 mg/kg at 72 and 48 hours prior to cyclophosphamide, 24 hours after cyclophosphamide.
A further assay concerns pS6. Put plainly: phosphorylated p70S6 kinase (pS6) immunostaining of urothelium after cyclophosphamide. The settings on record: two SC doses of 20 mg/kg at 72 and 48 hours prior to cyclophosphamide; 24 hours after cyclophosphamide; versus DMSO.
A further assay relates to pBAD. Put plainly: phosphorylated BAD (pBAD) immunostaining of urothelium after cyclophosphamide. The settings on record: two SC doses of 20 mg/kg at 72 and 48 hours prior to cyclophosphamide, 24 hours after cyclophosphamide. The protocol:
as §4

For assay [4], the system named is bladder urothelium. Put plainly: radiation-induced bladder urothelial apoptosis (TUNEL). The settings on record: two doses 20 mg/kg SQ at 72 and 48 hours prior to 10 Gray radiation, one day later. The protocol:
The ability of FGF7p to inhibit radiation injury as assesses. Two doses of FGF7p (20 mg/kg SQ) or 2.5% DMSO/PBS vehicle was administered to anesthetized female mice (N=2) at 72 hours and 48 hours prior to exposing the mice to 10 Gray (1000 rads) radiation. Instead of directly exposing bladders to irradiation, we transurethrally filled bladders with 300 μL of saline and focused the radiation beam over the bladder bulge on the depilated abdominal wall. One day later, we noted many TUNEL+ urothelial apoptotic cells in the vehicle-treated mice (FIG. 4, left panel). […] Thus, similar to KGF, systemic FGF7p inhibited or blocked radiation-induced apoptosis.

Setting [5] is: two SC doses of 20 mg/kg at 72 and 48 hours prior to IP 150 mg/kg cyclophosphamide, 24 hours after cyclophosphamide.

T1 sequence (P21803 22-707 isoform P21803-2 limits assumed): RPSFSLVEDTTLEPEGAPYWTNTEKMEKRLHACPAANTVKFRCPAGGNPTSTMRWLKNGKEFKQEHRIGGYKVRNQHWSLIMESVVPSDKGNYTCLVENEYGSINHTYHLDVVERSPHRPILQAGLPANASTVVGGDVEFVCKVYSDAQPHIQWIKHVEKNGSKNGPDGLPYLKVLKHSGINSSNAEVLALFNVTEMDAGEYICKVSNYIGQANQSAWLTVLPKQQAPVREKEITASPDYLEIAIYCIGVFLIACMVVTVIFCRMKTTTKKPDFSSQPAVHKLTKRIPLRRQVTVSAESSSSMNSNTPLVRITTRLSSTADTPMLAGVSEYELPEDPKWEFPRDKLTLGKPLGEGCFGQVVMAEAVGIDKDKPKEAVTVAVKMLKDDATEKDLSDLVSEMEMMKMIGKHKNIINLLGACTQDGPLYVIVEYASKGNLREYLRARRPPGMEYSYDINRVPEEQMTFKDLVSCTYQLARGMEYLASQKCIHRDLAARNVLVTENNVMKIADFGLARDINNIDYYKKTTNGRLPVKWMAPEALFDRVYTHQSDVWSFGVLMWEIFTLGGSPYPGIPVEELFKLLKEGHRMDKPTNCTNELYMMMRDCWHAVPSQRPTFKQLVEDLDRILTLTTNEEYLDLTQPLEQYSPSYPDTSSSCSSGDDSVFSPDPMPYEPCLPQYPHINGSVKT

For “YASAKWTHNGGEMFVALNQ (listed as Homo sapiens) [FGF7-p, chemically synthesized 19 amino acid peptide of FGF7, FGFR2IIIb agonist]”, the pFRS2α staining result is “weak and patchy; also recorded: Light/patchy (similar to control)” in the assay with FGFR2IIIb [1] (24 h after SC dose, uninjured mice, full length FGF7 5 mg/kg, FGF7-p 40 mg/kg); “Less, but still significant” with FGFR2IIIb [1] (48 hours after administration of 5 mg/kg); “strong” with FGFR2IIIb [1] (48 hours after administration of 20 mg/kg). In the assay with FGFR2IIIb [1], the “onset of pFRS2α staining (initial staining observed) after administration” value is recorded as “delayed”. The pAKT staining entry with FGFR2IIIb [2] (24 h after SC dose) is on record as “absent”; in the assay with FGFR2IIIb [2] (48 h after SC dose) it was “absent”; in the assay with FGFR2IIIb [2] (72 h after SC dose), “robust”. The “protection against urothelial apoptosis” value in the assay on bladder urothelium [3] (single SC dose 5, 20 or 40 mg/kg 24 hours before 150 mg/kg cyclophosphamide, at 48 hours, versus DMSO alone) is “no signs of protection against urothelial apoptosis”. For the same molecule, in the assay on bladder urothelium [3] (setting [5]), the “urothelial apoptosis, TUNEL staining” value is “intact and non-apoptotic urothelial cells”. The “urothelial injury, hematoxylin and eosin staining” value in the assay on bladder urothelium [3] (setting [5]) was “almost no urothelial injury”. In the assay with pAKT, the pAKT urothelial staining result was “strong signal throughout the urothelium”. The pS6 urothelial staining entry in the assay on pS6 is given as “much stronger staining”. In addition, the pBAD urothelial staining entry in the assay with pBAD is “strong staining”. In the assay with bladder urothelium [4], the “radiation-induced urothelial apoptosis, TUNEL staining” value is “many regions with almost no (middle panel) or minimal urothelial apoptosis”.

B1: full length FGF7: Fibroblast growth factor 7 (keratinocyte growth factor), full length ligand for FGFR2 IIIb isoform, used as comparator (protein)
chain: CNDMTPEQMATNVNCSSPERHTRSYDYMEGGDIRVRRLFCRTQWYLRIDKRGKVKGTQEMKNNYNIMEIRTVAVGIVAIKGVESEFYLAMNKEGKLYAKKECNEDCNFKELILENHYNTYASAKWTHNGGEMFVALNQKGIPVRGKKTKKEQKTAHFLPMAIT
In the case of B1, in the assay with FGFR2IIIb [1], the “onset of pFRS2α staining (initial staining observed) after administration” value is at most 15 hours. Further, in the assay with FGFR2IIIb [2] (mouse, in vivo), the “pAKT staining first observed after administration” value was at most 30 hours and the “peak of pAKT staining after administration” value turned out to be 48 hours.
